Results on 2 molecules are retold here after paper PMC11490551, “The homeodomain regulates stable DNA binding of prostate cancer target ONECUT2”.

The target in data set [1] is T1, ONECUT2 (OC2) residues 317-417, containing the CUT domain (Homo sapiens (Human), UniProt O95948).
T1 chain: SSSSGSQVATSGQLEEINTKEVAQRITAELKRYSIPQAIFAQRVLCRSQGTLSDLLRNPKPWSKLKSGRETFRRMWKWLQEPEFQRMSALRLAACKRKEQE
In words: ITC (implied; data not shown); absence of DNA.

The target of data set [2] is T2, OC2R479 (human, UniProt O95948 330-485, R479A).
T2 sequence: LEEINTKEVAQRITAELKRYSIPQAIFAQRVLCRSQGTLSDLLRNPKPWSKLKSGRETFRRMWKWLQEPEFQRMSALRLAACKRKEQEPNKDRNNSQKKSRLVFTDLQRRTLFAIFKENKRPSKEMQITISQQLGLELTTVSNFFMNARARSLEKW
Put plainly: ITC; ITC: 1X PBS pH 7.4, 0.005% Tween-20, 1 mM beta-ME, 25 C (also 12 and 30 C for heat capacity); BLI: 1X PBS, 0.5 mM TCEP, 0.005% Tween-20. As to conditions: protein: recombinant; tags: His6 removed by TEV.

Data set [3] has as its target T3, OC2N (human, UniProt O95948 330-485, N476A).
T3 sequence: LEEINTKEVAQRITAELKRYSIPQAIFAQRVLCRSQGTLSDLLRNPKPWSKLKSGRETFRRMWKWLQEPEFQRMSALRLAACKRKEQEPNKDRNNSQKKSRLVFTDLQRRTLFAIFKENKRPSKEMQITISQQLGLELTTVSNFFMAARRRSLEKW
The data set is described as above. The note with it: protein: recombinant; tags: His6 removed by TEV.

Data set [4] concerns the target T4, OC2SQ (human, UniProt O95948 330-485, S364A;Q365A).
T4 sequence: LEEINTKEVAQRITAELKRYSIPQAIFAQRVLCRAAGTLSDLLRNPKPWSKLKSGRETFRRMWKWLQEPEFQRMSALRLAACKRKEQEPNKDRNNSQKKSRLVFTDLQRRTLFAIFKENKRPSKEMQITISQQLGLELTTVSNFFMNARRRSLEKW
The data set is described as above. The note with it: protein: recombinant; tags: His6 removed by TEV.

Data set [5] addresses T5, OC2R480 (human, UniProt O95948 330-485, R480A).
T5 sequence: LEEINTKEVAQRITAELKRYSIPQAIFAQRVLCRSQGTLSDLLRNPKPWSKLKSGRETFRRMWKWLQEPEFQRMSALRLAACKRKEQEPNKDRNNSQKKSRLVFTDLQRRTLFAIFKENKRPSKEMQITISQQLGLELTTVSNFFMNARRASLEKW
The description is as above. The note with it: protein: recombinant; tags: His6 removed by TEV.

In data set [6] the target is T6, OC2 (CUT-HOX DNA binding region, wild type) (human, UniProt O95948 330-485).
T6 sequence: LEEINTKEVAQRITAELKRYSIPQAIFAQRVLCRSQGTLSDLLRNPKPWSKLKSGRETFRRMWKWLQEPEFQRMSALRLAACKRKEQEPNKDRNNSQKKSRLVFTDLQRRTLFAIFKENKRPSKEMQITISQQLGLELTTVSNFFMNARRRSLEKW
Put plainly: ITC; 25 C; ITC: 1X PBS pH 7.4, 0.005% Tween-20, 1 mM beta-ME, 25 C (also 12 and 30 C for heat capacity); BLI: 1X PBS, 0.5 mM TCEP, 0.005% Tween-20. The note with it: protein: recombinant; tags: His6 removed by TEV.

Data set [7] deals with T7, OC2 CUT domain (human, UniProt O95948 317-417).
T7 sequence: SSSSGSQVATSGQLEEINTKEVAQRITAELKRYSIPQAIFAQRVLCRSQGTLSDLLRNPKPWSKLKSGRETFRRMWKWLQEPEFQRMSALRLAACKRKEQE
Described as above. The note with it: protein: recombinant; tags: His6-MBP, removed by TEV (same protocol as OC2).

The target in data set [8] is T8, OC2 CUT domain;OC2 HOX domain (human;human, UniProt O95948;O95948 317-417;420-490, |).
T8 sequence 1: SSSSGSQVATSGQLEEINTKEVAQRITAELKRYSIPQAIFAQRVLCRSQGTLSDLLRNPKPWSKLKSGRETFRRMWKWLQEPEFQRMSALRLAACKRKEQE
T8 sequence 2: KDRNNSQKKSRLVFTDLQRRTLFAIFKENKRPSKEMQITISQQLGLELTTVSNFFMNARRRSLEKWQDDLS
In words: ITC; CUT and HOX as separate polypeptides; ITC: 1X PBS pH 7.4, 0.005% Tween-20, 1 mM beta-ME, 25 C (also 12 and 30 C for heat capacity); BLI: 1X PBS, 0.5 mM TCEP, 0.005% Tween-20. As to conditions: protein: recombinant;recombinant; copies: 1;1. (In general: Isothermal titration calorimetry measures the heat released or taken up as one component is titrated into another.)

B1: ONECUT2 (OC2) residues 420-490, containing the HOX domain (protein)
chain: KDRNNSQKKSRLVFTDLQRRTLFAIFKENKRPSKEMQITISQQLGLELTTVSNFFMNARRRSLEKWQDDLS
Regarding B1, in data set [1], the binding result is reported as “no binding”.

B2: PEG10 promoter DNA (12mer duplex) (dsDNA)
DNA 1: AGATCGATTTGC
DNA 2: GCAAATCGATCT
Take B2: the Kd in data set [2] was found to be 6 nM; in data set [3] it was 70 ± 11 nM; in data set [4], 51 ± 9 nM; in data set [5] it was 47 nM; in data set [6], 7 ± 2 nM; in data set [7] it was 2030 ± 262 nM. Further, the Kd in data set [8] amounted to 1380 ± 279 nM.

As usually defined, the Kd is the constant that tells how readily two partners part at equilibrium.
